B1: HA-NvSTING stably expressed in MEF Sting-/- cells (MEF^NvSTING) (natural protein, Nematostella vectensis)
chain: MRRAEENNGFGTIPKRRNQHTPFYASIGMIVVIIVAFTSYHITSYGDDRNRAMRQYSFTFSLAYLAFLVGELLRRCCLFAEEYRHIETRYNGSLKKAIQTTFSFGHNNVLFVASLLFFVVFVASNDPNGSSSVIQGNSTAEPHTEMRQTSGWQGLWGQFIISALLTPLVVHLLGLRELSKVEESQLNEKENKNVADGLAWSYYFGYLKFVLPELEKQIEKTSKFRSKEKFVKKMFILIPSNCFWDDKIPGSDYDPQNRITFEGNTEPLEKTRGGVFLRHYKHSVYEIKDGENEPWFCIMEYATPLLTLYDMSVAQPGELSREERDAQVVVFLRKLQDILEGDRACQGKYELVTFSPDRDLADVMLRKLKDSELEIGG
B2: HA-MmSTING stably expressed in MEF Sting-/- cells (MEF^MmSTING) (natural protein, Mus musculus)
chain: MPYSNLHPAIPRPRGHRSKYVALIFLVASLMILWVAKDPPNHTLKYLALHLASHELGLLLKNLCCLAEELCHVQSRYQGSYWKAVRACLGCPIHCMAMILLSSYFYFLQNTADIYLSWMFGLLVLYKSLSMLLGLQSLTPAEVSAVCEEKKLNVAHGLAWSYYIGYLRLILPGLQARIRMFNQLHNNMLSGAGSRRLYILFPLDCGVPDNLSVVDPNIRFRDMLPQQNIDRAGIKNRVYSNSVYEILENGQPAGVCILEYATPLQTLFAMSQDAKAGFSREDRLEQAKLFCRTLEEILEDVPESRNNCRLIVYQEPTDGNSFSLSQEVLRHIRQEEKEEVTMNAPMTSVAPPPSVLSQEPRLLISGMDQPLPLRTDLI
B3: HA-MbSTING stably expressed in MEF Sting-/- cells (MEF^MbSTING) (natural protein, Monosiga brevicollis)
chain: MMVNLSDLSHLSQRGWAQVFVTLAAAAISIFYFSFSPFEVAAGICASIAAAGAVPLLFDAVHYLIAFCISAPDARPPLRTVWTKTRLQRWSGLSILTFIVLACGLYFASPSPMSASNLFAVFALSLCNSVFSAMVAPRCGRLEVVDLATHPNTVLFRDFGAASAMSYWHGYLQHIAGDRAALEERFRDSDVGGMRVPRKLYILVPQDCEVNASDNKYEGLKATEHYISPKPITIGGVVDREMGKHTLYTPSESAETASVAFAMELASPLNTMKNALKDAAEGLLELQSEAFYLTLRGILKQEGVLDQGNDEGMIKLVWGKNRSEVLKKMRAEDQYAMP
B4: HA-DrSTING stably expressed in MEF Sting-/- cells (MEF^DrSTING) (natural protein, Danio rerio)
chain: MSVMGEDALVPRARSRLPVMCAAGLGFLTLAVAWLLDSDKFSERAGIIAFGLMLERFIYCICLLAEELLFHSRQRYHGRMSEIFRACFRGSGILGMCAIFLMLMLGGVSFSVKQWSHFNLMCAGYMLLNSLGVLGPAPVEISEICEAKKMNVAHGLAWSFYIGYLKFLLPALEVNVREYSRRERLSSPRLHILLPLNARVPSKPEEEDTNVVFHENLPDLKLDRAGVRKRSYTNSVYKITHNNETFSCILEYATPLLTLYQMSQESSAGFGERERKQQVLLFYRTLSQILDNSLECRNRYRLILLNDEHTGDPHYLSRELFQNLKQQDGEIFMDPTNEVHPVPEEGPVGNCNGALQATFHEEPMSDEPTLMFSRPQSLRSEPVETTDYFNPSSAMKQN

Target: the molecule itself
Test: native gel or EMSA
With B1 the “stoichiometry N” value was no less than 4. For B2, the “stoichiometry N” value was no less than 4. B3 was tested, and the “stoichiometry N” value was 4. With B4 the “stoichiometry N” value was no less than 4.

Reference: paper doi:10.1101/2025.11.17.688879 (bioRxiv, 2025)
